Experimental data: patent EP1759709B1 (Elan Pharmaceuticals Inc., dated 2013)
Positions count from the first letter of the chain named.

Biological target: T1, human α4β1 integrin (human, UniProt P13612 34-1032; P05556 21-798)
T1 construct: whole, on cells; also called VLA-4; alpha-4-beta-1 integrin
Experiment: ELISA on L cells expressing α4β1 integrin; crude supernatants

B1: reshaped human 21.6 antibody (La + Ha) (antibody, V domains shown)
VH: QVQLVQSGAEVKKPGASVKVSCKASGFNIKDTYIHWVRQAPGQRLEWMGRIDPANGYTKYDPKFQGRVTITADTSASTAYMELSSLRSEDTAVYYCAREGYYGNYGVYAMDYWGQGTLVTVSS
VL: DIQMTQSPSSLSASVGDRVTITCKTSQDINKYMAWYQQTPGKAPRLLIHYTSALQPGIPSRFSGSGSGRDYTFTISSLQPEDIATYYCLQYDNLWTFGQGTKVEIK
notes: Expressed in Cos cells
- binding result: binds

B2: reshaped human 21.6 antibody (Lb + Ha) (antibody, V domains shown)
VH: B1 VH
VL: B1 VL with H49Y
notes: Human kappa / human gamma-1 constant regions; tested as crude Cos supernatant; Lb is therefore built here from La with the stated change; also called version Lb in combination with version Ha
- binding result: binds
